Source: patent US20200283523A1 (WUXI BIOLOGICS IRELAND, published 2020)

Assays:
human CD19 = target: T1, human CD19 (human, UniProt P15391 20-556); assay: cell-based or functional assay
T1 sequence (looked up): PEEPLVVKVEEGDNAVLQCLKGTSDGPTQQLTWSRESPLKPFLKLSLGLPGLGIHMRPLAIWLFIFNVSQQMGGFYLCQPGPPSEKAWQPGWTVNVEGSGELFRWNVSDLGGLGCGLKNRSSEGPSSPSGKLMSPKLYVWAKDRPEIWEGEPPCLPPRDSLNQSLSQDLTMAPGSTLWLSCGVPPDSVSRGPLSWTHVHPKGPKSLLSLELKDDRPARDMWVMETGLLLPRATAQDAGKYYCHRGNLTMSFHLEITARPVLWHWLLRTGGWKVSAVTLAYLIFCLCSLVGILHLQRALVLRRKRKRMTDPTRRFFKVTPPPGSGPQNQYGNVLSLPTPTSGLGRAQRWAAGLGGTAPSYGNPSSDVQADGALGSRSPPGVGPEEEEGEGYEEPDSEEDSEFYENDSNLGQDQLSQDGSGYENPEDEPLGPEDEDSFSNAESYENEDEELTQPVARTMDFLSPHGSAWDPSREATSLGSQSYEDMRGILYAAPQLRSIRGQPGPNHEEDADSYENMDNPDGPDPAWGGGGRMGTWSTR

FcγRIIa (R167) = target: T2, FcγRIIa (R167) (UniProt P12318 36-218, limits assumed); assay: SPR (Biacore), receptor captured on anti-his chip, antibody injected, steady state fit
T2 sequence (looked up): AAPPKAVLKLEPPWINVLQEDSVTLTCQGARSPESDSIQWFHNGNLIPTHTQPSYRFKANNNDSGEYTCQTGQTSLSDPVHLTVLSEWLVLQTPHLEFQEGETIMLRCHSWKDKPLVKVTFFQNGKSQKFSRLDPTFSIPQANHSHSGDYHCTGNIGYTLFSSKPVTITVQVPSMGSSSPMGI
Experimental: (§1) Antibody binding affinity to FcγRs was detected using Biacore T200 (or Biacore 8K). Each receptor was captured on an anti-his antibody immobilized CMS sensor chip (GE). Antibodies at different concentrations were injected over the sensor chip at a flow rate of 30 uL/min for an association phase of 60 s, followed by 60 s dissociation. The chip was then regenerated by 10 mM glycine (pH 1.5) after each binding cycle.
(§2) The sensorgrams of blank surface and buffer channel were subtracted from the test sensorgrams. The experimental data was fitted by 1:1 model using Langmiur analysis (for FcγRI) or steady state model (for other receptors). A molecular weight of 150 KDa was used to calculate the molar concentration of antibodies.

FcγRIIIa (V176) = FcγRIIIa (V176) (UniProt P08637 17-208); assay: as above
Experimental: as §1, §2

FcγRIIIa (F176) = FcγRIIIa (F176) (UniProt P08637 17-208); assay: as above
Experimental: as §1, §2

FcγRIIb = target: T3, FcγRIIb (UniProt P31994 46-217, limits assumed); assay: as above
T3 sequence (looked up): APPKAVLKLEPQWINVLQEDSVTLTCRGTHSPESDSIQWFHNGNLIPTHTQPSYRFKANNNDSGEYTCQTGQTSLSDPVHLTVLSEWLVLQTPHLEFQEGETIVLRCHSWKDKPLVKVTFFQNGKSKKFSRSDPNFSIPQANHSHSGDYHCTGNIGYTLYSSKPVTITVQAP
Experimental: as §1, §2

FcγRIIa (H167) = target: T4, FcγRIIa (H167) (UniProt P12318 36-218, limits assumed); assay: as above
T4 sequence (looked up): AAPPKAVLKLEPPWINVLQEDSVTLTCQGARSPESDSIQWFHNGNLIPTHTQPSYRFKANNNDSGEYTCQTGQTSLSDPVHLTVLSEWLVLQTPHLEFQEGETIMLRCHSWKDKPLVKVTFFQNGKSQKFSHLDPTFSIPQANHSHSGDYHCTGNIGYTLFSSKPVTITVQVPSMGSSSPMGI
Experimental: as §1, §2

FcγRIIIb = FcγRIIIb (UniProt O75015 17-200); assay: as above
Experimental: as §1, §2

[1] = target: T5, Cynomolgus CD3 epsilon protein (cynomolgus monkey, UniProt Q95LI5 22-117); assay: ELISA on coated cynomolgus CD3 epsilon protein
T5 construct: extracellular domain; The method names a bought protein (Acro # CDE-05226), the result names W331-cynoProl.ECD.His; also called W331-cynoProl.ECD.His; Acro # CDE-05226; not shown: His tag by the construct's name
T5 sequence (looked up): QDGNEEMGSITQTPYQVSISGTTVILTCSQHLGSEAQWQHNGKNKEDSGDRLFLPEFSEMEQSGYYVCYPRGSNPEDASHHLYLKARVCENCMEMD
Experimental: The binding of the CD3×CD19 bispecific antibody to cynomolgus CD3 were tested by protein binding ELISA. 96-well high protein binding ELISA plates (Nunc MaxiSorp, ThermoFisher, Thermo-442404) were coated overnight at 4° C. with 100 ul of 1 μg/ml Cynomolgus CD3 epsilon protein (Acro, # CDE-05226) in Carbonate-bicarbonate buffer (20 mM Na2CO3, 180 mM NaHCO₃, PH9.2). All wells were washed one time with 300 μL per well of PBS/0.5% Tween-20 (v/v). The wells were then blocked for one hour at room temperature with 200 μL per well of PBS/2% BSA (BOVOGEN, # BSAS) and washed three times with 300 μL per well of PBS/0.5% Tween-20 (v/v). For the primary antibody binding, CD3×CD19 bispecific antibody serially diluted in PBS/2% BSA were added to the relevant wells and incubated at room temperature for two hours. Plates were washed three times like before prior to the addition of 100 ul of 100 ng/ml secondary antibody Goat-anti-human IgG Fc-HRP (Bethyl, # A80-304P). Plates were incubated at room temperature for one hour, followed by six washes as described above. […] The extent of bispecific antibody binding to cynomolgus CD3 was determined by measuring the OD450 absorbance using the SpectraMax® M5e microplate reader. […]

FcγRI = FcγRI (UniProt P12314 16-288, limits assumed); assay: SPR (Biacore), receptor captured on anti-his chip, antibody injected, 1:1 Langmuir fit
Experimental: as §1, §2

FcγRIIIb, sequence (O75015 17-200 limits assumed): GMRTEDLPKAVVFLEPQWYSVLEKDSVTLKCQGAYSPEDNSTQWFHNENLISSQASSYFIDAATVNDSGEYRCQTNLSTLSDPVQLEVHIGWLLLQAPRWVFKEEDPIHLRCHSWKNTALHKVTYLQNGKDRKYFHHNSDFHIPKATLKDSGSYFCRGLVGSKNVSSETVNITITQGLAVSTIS
FcγRIIIa (F176), sequence (P08637 17-208 limits assumed): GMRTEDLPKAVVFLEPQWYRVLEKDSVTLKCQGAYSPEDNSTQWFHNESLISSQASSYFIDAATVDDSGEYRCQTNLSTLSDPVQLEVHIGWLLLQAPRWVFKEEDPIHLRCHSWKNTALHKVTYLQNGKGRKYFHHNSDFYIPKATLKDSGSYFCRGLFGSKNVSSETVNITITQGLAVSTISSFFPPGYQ
FcγRIIIa (V176), sequence (P08637 17-208 F176V limits assumed): as the sequence (P08637 17-208 limits assumed) above, with F160V counted along it
FcγRI, sequence (P12314 16-288 limits assumed): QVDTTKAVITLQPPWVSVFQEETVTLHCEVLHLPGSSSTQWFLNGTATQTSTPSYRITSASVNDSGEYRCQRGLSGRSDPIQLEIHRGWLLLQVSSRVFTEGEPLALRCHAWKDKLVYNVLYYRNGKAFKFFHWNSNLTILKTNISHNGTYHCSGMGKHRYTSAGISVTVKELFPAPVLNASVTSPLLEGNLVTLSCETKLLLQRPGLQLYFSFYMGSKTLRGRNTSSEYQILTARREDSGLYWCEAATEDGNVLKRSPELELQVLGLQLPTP

Kd (FcγRIIa (R167)): 15.8 µM
Kd (FcγRIIIa (V176)): 14 µM
Kd (FcγRIIIa (F176)): 29.3 µM
Kd (FcγRIIb): 24.1 µM
Kd (FcγRIIa (H167)): 20.5 µM
Kd (FcγRIIIb): > 41 µM
EC50 [1]: 0.04 nM
Kd (FcγRI): 0.00979 µM
B1: W3438-T3U4.E17-1.uIgG4.SP (bispecific antibody)
light 1: DIVMTQSPDSLAVSLGERATINCKSSQSLLNSRTRKNYLAWYQQKPGQPPKLLIYWASTRQSGVPDRFSGSGSGTDFTLTISSLQAEDVAVYYCTQSHTLRTFGGGTKVEIKPDIQNPDPAVYQLRDSKSSDKSVCLFTDFDSQTQVSQSKDSDVYITDKCVLDMRSMDFKSNSAVAWSQKSDFACANAFQNSIIPEDTFFPSPESS
heavy 1: QVQLVQSGAEVKKPGSSVKVSCKASGFAFTDYYIHWVRQAPGQGLEWMGWISPGNVNTKYNENFKGRVTITADKSTSTAYMELSSLRSEDTAVYYCARDGYSLYYFDYWGQGTLVTVLEDLKNVFPPEVAVFEPSEAEISHTQKATLVCLATGFYPDHVELSWWVNGKEVHSGVCTDPQPLKEQPALQDSRYALSSRLRVSATFWQNPRNHFRCQVQFYGLSENDEWTQDRAKPVTQIVSAEAWGRYGPPCPPCPAPEFLGGPSVFLFPPKPKDTLMISRTPEVTCVVVDVSQEDPEVQFNWYVDGVEVHNAKTKPREEQFNSTYRVVSVLTVLHQDWLNGKEYKCKVSNKGLPSSIEKTISKAKGQPREPQVYTLPPCQEEMTKNQVSLWCLVKGFYPSDIAVEWESNGQPENNYKTTPPVLDSDGSFFLYSRLTVDKSRWQEGNVFSCSVMHEALHNHYTQKSLSLSLGK
light 2: DIQLTQSPSFLSASVGDRVTITCSASSTVNYMHWYQQKPGKAPKLLIYSTSNLASGVPSRFSGSGSGTEFTLTISSLQPEDFATYYCHQWSSYPYTFGQGTKLEIKRTVAAPSVFIFPPSDEQLKSGTASVVCLLNNFYPREAKVQWKVDNALQSGNSQESVTEQDSKDSTYSLSSTLTLSKADYEKHKVYACEVTHQGLSSPVTKSFNRGEC
heavy 2: QMQLVQSGPEVKKPGTSVKVSCKASGYAFTSYNMYWVRQARGQRLEWIGYIDPYNGDTTYNQKFKGRVTITRDMSTSTAYMELSSLRSEDTAVYYCLTTAYAMDYWGQGTLVTVSSASTKGPSVFPLAPCSRSTSESTAALGCLVKDYFPEPVTVSWNSGALTSGVHTFPAVLQSSGLYSLSSVVTVPSSSLGTKTYTCNVDHKPSNTKVDKRVESKYGPPCPPCPAPEFLGGPSVFLFPPKPKDTLMISRTPEVTCVVVDVSQEDPEVQFNWYVDGVEVHNAKTKPREEQFNSTYRVVSVLTVLHQDWLNGKEYKCKVSNKGLPSSIEKTISKAKGQPREPQVCTLPPSQEEMTKNQVSLSCAVKGFYPSDIAVEWESNGQPENNYKTTPPVLDSDGSFFLVSRLTVDKSRWQEGNVFSCSVMHEALHNHYTQKSLSLSLGK
notes: Bispecific, bivalent: one anti-CD3 arm with TCR constant domains and one native anti-CD19 Fab arm, IgG4 S228P Fc with knobs-into-holes; also called WBP3438; CD3×CD19 bispecific antibody; copies: 1 + 1 + 1 + 1
cytotoxic activity on Raji cells with CD8+ T cells, EC50 (human CD19): 0.015 µM
